Laboratory results published in patent CN114652853A (JIANGSU ZHEREI MEDICINE CO LTD; SHANGHAI TENGDI MEDICINE CO …, dated 2022).

T1: 人源IL-4R (human IL-4R), overexpressed on LN229, U251 and HEK293 cells (human, UniProt P24394 26-825)
T1 sequence (looked up): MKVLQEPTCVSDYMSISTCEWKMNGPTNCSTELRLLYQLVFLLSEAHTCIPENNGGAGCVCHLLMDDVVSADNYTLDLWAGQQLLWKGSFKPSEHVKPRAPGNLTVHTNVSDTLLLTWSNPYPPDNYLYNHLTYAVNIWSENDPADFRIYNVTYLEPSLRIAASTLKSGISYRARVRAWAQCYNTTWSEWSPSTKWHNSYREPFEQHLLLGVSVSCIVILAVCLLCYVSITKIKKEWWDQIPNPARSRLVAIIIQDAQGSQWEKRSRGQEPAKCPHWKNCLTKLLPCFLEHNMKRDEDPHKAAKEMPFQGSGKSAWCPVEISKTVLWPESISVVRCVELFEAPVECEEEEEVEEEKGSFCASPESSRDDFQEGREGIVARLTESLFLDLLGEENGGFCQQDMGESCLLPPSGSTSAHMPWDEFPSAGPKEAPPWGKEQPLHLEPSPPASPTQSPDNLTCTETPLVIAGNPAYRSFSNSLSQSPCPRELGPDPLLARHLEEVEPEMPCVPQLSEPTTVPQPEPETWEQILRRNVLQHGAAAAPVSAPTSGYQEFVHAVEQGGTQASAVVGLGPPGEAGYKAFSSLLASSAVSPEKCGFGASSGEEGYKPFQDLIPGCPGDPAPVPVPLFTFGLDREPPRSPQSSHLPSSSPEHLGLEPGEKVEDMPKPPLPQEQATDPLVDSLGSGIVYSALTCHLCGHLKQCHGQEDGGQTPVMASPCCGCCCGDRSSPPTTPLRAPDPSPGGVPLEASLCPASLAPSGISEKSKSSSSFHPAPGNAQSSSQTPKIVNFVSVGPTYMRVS


Biological target: T1, 人源IL-4R (human IL-4R), overexpressed on …
Assay: cell-based or functional assay

Binder | IC50, 体外毒性 in HEK293-IL4R细胞 [nM]
25G7-C1, DAR=5.86 (antibody, human IgG1, kappa, V domains shown, 依喜替康类似物 (exatecan analogue) joined through a linker; measured DAR 5.86; attachment residues not stated) VH: EVQLVESGGGLVQPGGSLRLSCAASGFTFSDYGMHWVRQAPGKGLEWVAFISSGSSIIYYADIVKGRSTISRDNAKNTLYLQMNSLRAEDTAVYYCTRGNKRGFFDYWGQGTLVTVSS VL: EIVLTQSPATLSLSPGERATLSCRASSSVPYMYWYQQKPGQAPRLLIYLTSNLASGIPARFSGSGSGTDFTLTISSLEPEDFAVYYCQQWRAYPPMLTFGGGTKVEIKR | 0.458
25G7-C1, DAR=3.52 (antibody, human IgG1, kappa, V domains shown, 依喜替康类似物 (exatecan analogue) joined through a linker; measured DAR 3.52; attachment residues not stated) VH: EVQLVESGGGLVQPGGSLRLSCAASGFTFSDYGMHWVRQAPGKGLEWVAFISSGSSIIYYADIVKGRSTISRDNAKNTLYLQMNSLRAEDTAVYYCTRGNKRGFFDYWGQGTLVTVSS VL: EIVLTQSPATLSLSPGERATLSCRASSSVPYMYWYQQKPGQAPRLLIYLTSNLASGIPARFSGSGSGTDFTLTISSLEPEDFAVYYCQQWRAYPPMLTFGGGTKVEIKR | 3.29
